Experimental data as given in US20230250154A1 (CYTONICS, published 2023).

What was measured:
Assay in all cases: cell-based or functional assay
[1] = molecular target: chymotrypsin
[2] = molecular target: bovine trypsin (bovine, UniProt P00760 24-246)
[3] = molecular target: Elastase
[4] = molecular target: T1, Cathepsin G (UniProt P08311 21-244)
T1 sequence (looked up): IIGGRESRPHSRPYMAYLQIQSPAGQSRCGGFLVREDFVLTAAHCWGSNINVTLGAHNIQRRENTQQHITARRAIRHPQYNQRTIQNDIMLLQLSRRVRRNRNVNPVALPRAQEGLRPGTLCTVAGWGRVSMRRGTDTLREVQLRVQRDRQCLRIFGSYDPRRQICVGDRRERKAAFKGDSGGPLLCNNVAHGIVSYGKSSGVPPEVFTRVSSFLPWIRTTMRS

[5] = molecular target: MMP8 (human, UniProt P22894 101-467, limits assumed)
Sequence of MMP8 (P22894 101-467 limits assumed): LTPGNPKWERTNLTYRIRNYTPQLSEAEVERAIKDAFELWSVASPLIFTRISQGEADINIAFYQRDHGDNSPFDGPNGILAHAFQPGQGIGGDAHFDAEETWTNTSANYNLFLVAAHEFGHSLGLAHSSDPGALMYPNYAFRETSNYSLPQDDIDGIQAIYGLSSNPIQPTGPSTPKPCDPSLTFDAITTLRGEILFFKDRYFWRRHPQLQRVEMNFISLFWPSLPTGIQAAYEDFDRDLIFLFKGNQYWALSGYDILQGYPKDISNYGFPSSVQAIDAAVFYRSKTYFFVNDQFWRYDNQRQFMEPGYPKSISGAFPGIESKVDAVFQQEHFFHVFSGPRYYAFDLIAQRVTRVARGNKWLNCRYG

[6] = molecular target: MMP3 (human, UniProt P08254 100-477, limits assumed)
Sequence of MMP3 (P08254 100-477 limits assumed): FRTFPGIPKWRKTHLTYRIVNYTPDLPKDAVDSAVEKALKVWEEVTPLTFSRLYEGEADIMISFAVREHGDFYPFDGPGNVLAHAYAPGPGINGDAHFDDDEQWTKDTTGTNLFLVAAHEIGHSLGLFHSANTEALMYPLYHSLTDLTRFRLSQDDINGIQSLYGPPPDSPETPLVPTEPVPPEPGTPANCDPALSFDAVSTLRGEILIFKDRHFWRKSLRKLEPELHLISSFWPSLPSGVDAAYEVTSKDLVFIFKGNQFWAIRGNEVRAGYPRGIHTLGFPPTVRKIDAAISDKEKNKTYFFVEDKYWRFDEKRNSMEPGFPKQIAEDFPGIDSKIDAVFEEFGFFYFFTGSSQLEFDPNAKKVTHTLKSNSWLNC

[7] = molecular target: T2, ADAMTS5 (human, UniProt Q9UNA0 262-622, limits assumed)
T2 sequence (looked up): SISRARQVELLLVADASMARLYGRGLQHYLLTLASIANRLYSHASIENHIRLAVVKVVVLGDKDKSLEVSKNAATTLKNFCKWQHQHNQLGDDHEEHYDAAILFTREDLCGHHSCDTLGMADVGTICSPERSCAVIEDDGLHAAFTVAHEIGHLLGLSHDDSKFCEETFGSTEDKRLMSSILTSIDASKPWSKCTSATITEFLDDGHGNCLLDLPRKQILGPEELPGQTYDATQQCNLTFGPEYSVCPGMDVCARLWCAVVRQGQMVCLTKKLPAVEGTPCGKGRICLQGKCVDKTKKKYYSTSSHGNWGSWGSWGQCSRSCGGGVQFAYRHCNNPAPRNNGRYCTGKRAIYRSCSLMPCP

[8] = molecular target: MMP13 (human, UniProt P45452 104-471, limits assumed)
[9] = molecular target: T3, ADAMTS4 (human, UniProt O75173 213-685, limits assumed)
T3 sequence (looked up): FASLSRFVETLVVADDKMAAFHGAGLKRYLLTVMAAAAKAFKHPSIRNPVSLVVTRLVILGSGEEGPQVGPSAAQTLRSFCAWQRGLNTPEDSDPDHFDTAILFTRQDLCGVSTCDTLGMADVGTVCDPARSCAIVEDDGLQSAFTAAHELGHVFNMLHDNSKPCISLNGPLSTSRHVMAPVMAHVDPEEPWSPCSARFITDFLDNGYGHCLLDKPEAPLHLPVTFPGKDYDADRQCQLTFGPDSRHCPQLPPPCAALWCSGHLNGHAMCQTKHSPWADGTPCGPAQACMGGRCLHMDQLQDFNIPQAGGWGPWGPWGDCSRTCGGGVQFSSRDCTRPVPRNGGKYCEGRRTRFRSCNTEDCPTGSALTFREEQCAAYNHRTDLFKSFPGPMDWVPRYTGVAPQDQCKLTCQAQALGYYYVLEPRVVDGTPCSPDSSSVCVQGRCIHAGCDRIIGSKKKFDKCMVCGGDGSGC

[10] = molecular target: T4, MMP1 (human, UniProt P03956 100-469, limits assumed)
T4 sequence (looked up): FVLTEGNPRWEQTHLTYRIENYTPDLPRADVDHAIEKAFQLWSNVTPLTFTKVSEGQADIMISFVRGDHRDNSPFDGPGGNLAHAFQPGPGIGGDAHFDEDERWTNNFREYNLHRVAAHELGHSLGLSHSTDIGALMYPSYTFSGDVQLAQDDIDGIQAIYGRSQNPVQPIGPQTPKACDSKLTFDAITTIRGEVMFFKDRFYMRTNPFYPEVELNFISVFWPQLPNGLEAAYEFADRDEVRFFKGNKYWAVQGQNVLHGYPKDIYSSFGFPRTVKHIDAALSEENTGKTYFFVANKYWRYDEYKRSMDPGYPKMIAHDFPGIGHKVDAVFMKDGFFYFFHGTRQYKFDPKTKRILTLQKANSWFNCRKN

[11] = molecular target: T5, MMP2 (human, UniProt P08253 110-660, limits assumed)
T5 sequence (looked up): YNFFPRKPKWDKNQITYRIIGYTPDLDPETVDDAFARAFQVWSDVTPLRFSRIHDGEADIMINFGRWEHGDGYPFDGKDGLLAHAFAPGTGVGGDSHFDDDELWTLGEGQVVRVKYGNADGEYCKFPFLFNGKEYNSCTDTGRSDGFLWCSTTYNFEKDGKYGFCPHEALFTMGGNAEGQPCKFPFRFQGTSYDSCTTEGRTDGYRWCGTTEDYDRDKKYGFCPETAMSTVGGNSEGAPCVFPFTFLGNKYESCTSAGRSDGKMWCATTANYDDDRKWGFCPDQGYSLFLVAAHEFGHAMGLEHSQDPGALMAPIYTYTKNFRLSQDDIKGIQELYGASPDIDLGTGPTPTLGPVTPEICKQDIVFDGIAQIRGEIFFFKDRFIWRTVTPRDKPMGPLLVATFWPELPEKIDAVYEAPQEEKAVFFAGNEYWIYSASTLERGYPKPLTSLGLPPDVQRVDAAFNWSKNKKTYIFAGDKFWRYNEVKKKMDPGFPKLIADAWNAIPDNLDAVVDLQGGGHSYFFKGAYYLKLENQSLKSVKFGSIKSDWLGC

[12] = molecular target: MMP12 (human, UniProt P39900 106-470, limits assumed)
Sequence of MMP12 (P39900 106-470 limits assumed): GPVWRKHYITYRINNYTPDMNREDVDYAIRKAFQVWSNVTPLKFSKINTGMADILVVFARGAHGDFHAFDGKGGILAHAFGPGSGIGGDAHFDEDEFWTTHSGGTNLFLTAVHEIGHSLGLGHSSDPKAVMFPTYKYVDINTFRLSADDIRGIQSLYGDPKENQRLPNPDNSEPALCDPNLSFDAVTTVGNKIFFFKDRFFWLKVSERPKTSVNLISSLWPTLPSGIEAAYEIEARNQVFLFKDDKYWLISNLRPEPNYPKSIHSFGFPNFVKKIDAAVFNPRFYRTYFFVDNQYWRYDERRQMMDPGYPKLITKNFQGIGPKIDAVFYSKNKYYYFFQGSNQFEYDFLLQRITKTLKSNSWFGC

[13] = molecular target: MMP9 (human, UniProt P14780 107-707, limits assumed)
Sequence of MMP9 (P14780 107-707 limits assumed): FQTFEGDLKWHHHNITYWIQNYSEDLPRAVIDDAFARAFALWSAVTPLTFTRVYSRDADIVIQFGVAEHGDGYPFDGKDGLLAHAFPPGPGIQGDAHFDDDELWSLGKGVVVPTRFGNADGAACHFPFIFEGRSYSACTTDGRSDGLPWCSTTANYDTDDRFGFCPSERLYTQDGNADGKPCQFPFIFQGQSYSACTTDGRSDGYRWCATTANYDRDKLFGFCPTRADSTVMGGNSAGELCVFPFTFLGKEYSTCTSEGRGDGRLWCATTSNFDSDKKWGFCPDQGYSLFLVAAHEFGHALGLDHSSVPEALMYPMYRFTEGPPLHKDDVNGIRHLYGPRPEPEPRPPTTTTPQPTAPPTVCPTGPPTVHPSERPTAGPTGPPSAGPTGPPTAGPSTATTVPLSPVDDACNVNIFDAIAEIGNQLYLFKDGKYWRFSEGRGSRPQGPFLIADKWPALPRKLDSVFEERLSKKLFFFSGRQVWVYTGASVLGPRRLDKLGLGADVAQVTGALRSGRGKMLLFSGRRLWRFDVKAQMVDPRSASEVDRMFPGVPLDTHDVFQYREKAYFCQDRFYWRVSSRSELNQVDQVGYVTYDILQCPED

Sequence of bovine trypsin (P00760 24-246): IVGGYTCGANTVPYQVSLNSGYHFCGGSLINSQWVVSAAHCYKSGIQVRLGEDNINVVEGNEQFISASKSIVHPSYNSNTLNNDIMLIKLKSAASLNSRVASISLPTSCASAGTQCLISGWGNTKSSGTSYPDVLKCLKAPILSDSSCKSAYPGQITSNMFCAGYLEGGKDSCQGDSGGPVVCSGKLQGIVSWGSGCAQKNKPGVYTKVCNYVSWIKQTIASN

- Protease Inhibition (% of WT) [1]: 25 % of WT
- Protease Inhibition (% of WT) [2]: 221 % of WT
- Protease Inhibition (% of WT) [3]: 250 % of WT
- Protease Inhibition (% of WT) [4]: 376 % of WT
- Protease Inhibition (% of WT) [5]: 133 % of WT
- Protease Inhibition (% of WT) [6]: 130 % of WT
- Protease Inhibition (% of WT) [7]: 373 % of WT
- Protease Inhibition (% of WT) [8]: 113 % of WT
- Protease Inhibition (% of WT) [9]: 80 % of WT
- Protease Inhibition (% of WT) [10]: 370 % of WT
- Protease Inhibition (% of WT) [11]: 47 % of WT
- Protease Inhibition (% of WT) [12]: 150 % of WT
- Protease Inhibition (% of WT) [13]: 500 % of WT
B1: Variant A2M, bait region SEQ ID NO 136 (other)
chain: SVSGKPQYMVLVPSLLHTETTEKGCVLLSYLNETVTVSASLESVRGNRSLFTDLEAENDVLHCVAFAVPKSSSNEEVMFLTVQVKGPTQEFKKRTTVMVKNEDSLVFVQTDKSIYKPGQTVKFRVVSMDENFHPLNELIPLVYIQDPKGNRIAQWQSFQLEGGLKQFSFPLSSEPFQGSYKVVVQKKSGGRTEHPFTVEEFVLPKFEVQVTVPKIITILEEEMNVSVCGLYTYGKPVPGHVTVSICRKYSDASDCHGEDSQAFCEKFSGQLNSHGCFYQQVKTKVFQLKRKEYEMKLHTEAQIQEEGTVVELTGRQSSEITRTITKLSFVKVDSHFRQGIPFFGQVRLVDGKGVPIPNKVIFIRGNEANYYSNATTDEHGLVQFSINTTNVMGTSLTVRVNYKDRSPCYGYQWVSEEHEEAHHTAYLVFSPSKSFVHLEPMSHELPCGHTQTVQAHYILNGGTLLGLKKLSFYYLIMAKGGIVRTGTHGLLVKQEDMKGHFSISIPVKSDIAPVARLLIYAVLPTGDVIGDSAKYDVENCLANKVDLSFSPSQSLPASHAHLRVTAAPQSVCALRAVDQSVLLMKPDAELSASSVYNLLPEKDLTGFPGPLNDQDDEDCINRHNVYINGITYTPVSSTNEKDMYSFLEDMGLKAFTNSKIRKPKMCPQLEQYEMHGPKEEEGLGSIPENFFGVSELEGRGSEGEGEGEGVEEPHTKLRKYFPETWIWDLVVVNSAGVAEVGVTVPDTITEWKAGAFCLSEDAGLGISSTASLRAFQPFFVELTMPYSVIRGEAFTLKATVLNYLPKCIRVSVQLEASPAFLAVPVEKEQAPHCICANGRQTVSWAVTPKSLGNVNFTVSAEALESQELCGTEVPSVPEHGRKDTVIKPLLVEPEGLEKETTFNSLLCPSGGEVSEELSLKLPPNVVEESARASVSVLGDILGSAMQNTQNLLQMPYGCGEQNMVLFAPNIYVLDYLNETQQLTPEIKSKAIGYLNTGYQRQLNYKHYDGSYSTFGERYGRNQGNTWLTAFVLKTFAQARAYIFIDEAHITQALIWLSQRQKDNGCFRSSGSLLNNAIKGGVEDEVTLSAYITIALLEIPLTVTHPVVRNALFCLESAWKTAQEGDHGSHVYTKALLAYAFALAGNQDKRKEVLKSLNEEAVKKDNSVHWERPQKPKAPVGHFYEPQAPSAEVEMTSYVLLAYLTAQPAPTSEDLTSATNIVKWITKQQNAQGGFSSTQDTVVALHALSKYGAATFTRTGKAAQVTIQSSGTFSSKFQVDNNNRLLLQQVSLPELPGEYSMKVTGEGCVYLQTSLKYNILPEKEEFPFALGVQTLPQTCDEPKAHTSFQISLSVSYTGSRSASNMAIVDVKMVSGFIPLKPTVKMLERSNHVSRTEVSSNHVLIYLDKVSNQTLSLFFTVLQDVPVRDLKPAIVKVYDYYETDEFAIAEYNAPCSKDLGNADYKDDDDKGASHHHHHH
